Results as given in the DeepSol protein solubility set.

Assay: soluble on expression in E. coli; label from the status in PepcDB or PDB records

Sequence	soluble on expression in E. coli
MGSDKIHHHHHHMTTRLQDIIQPEIFTEYVVQRTTEKSALVQSGIIERNAEFDALASGPNTLVNMPFWNDLTGDSEVIRDEGNLTAGKITSGKDVARKQGRARMWGASGLSALLSGDDPMRAIADLVADYWIRQDQKMLLATLEGIFNSESMADKVLDITGEPGSDALLDGDSFIDAGQLMGDAKDLLTGVMMHSAVEAYLAKRQLIEYVQEADQTDRIPYFMNKRVIVDDAMPYDTQTKEGVIYLFGTGAIASGVGSHPNILPTEVDRNSQSSSGEDFLINRRIQILHPRGVKWTENNVSDVFPTNEELADGSNWERVYEPKAIRIVKFKFKTELDVDGA	not soluble
MKTVLLTGFDPFGGESINPAWEVAKSLHEKTIGEYKIISKQVPTVFHKSISVLKEYIEELAPEFIICIGQAGGRPDITIERVAINIDDARIADNEGNQPVDVPVVEEGPAAYWSTLPMKAIVKKLQEEGIPASVSQTAGTFVCNHLFYGLMHELEKHDTKMKGGFIHIPFLPEQASNYPGQPSMSLSTIRKGIELAVEVTTTVEVDIVEVGGTTH	soluble
MAHHHHHHMMRRVYAPVFCSVAAARFAATSAAKKYDLFGYEVDTNTAPWIEKIKKCKYYDEAGEVLVNMNVSNCPPDIATYNATLQCIYQSPSKQSTPVDNESKFCAMMDLLEEMQHRNRLKPNEESWTWVMKECVKSGQFRLGYCIQQVMETECKGCPADLVKANEANAQKAKTEGKEHPGHLSQQAGLFDVKVE	not soluble
SPIIPEAARALYYNDGMFEGDIKLRAGRQPARVGAAILGDEYLWSGGVIPYTFAGVSGADQSAILSGMQELEEKTCIRFVPRTTESDYVEIFTSGSGCWSYVGRISGAQQVSLQANGCVYHGTILHALMHAIGFYHEHTRMDRDNYVTINYQNVDPSMTSNFDIDTYSRYVGEDYQYYSIMHYGKYSFSIQWGVLETIVPLQNGIDLTDPYDKAHMLQTDANQINNLYTNECSLR	soluble
GPLGSPEFPGRRKPEAQPFAHLTINAASIPSGSHKVTLSSWYHDRGWAKISNMTLSNGKLRVNQDGFYYLYANICFRHHETSGSVPTDYLQLMVYVVKTSIKIPSSHNLMKGGSTKNWSGNSEFHFYSINVGGFFKLRAGEEISIQVSNPSLLDPDQDATYFGAFKVQDID	soluble
MAHHHHHHMKRAAKGEVVFDEDIRRLCDKGVNNLPGWSLAAAEVKAAVRNSTKHFLDAAAEEARNPTTTSAPEKLEGCYKSVHNARRGHAVELPDGVERTKTGTGMGMHEGRPEQSWSYKKADDAIEKNDGVQQFGAAPPVLMVLTLDKGWPYSWNRIQDLPKDVFVNCEVDRVWQTVKGDVTAWFSPHGGTDFTPKQRVLIGTPGIGKSMAAGSYLLYQLLHCDAKKLQVVVHRFGGGDAYVSDKITRAVTKYSDEDMCISELRRLRGYGRNVYIIYDVAKEGTPPPRHFAPTSGWGMIVVSFPKVTNYDEWEKQLHAARIIMNCPDESDVRAMCIWKEYNGQVEEEADYWKKVKDRMDKVGPILRFIFDN	not soluble
GSHMSKKILIVESDTALSATLRSALEGRGFTVDETTDGKGSVEQIRRDRPDLVVLAVDLSAGQNGYLICGKLKKDDDLKNVPIVIIGNPDGFAQHRKLKAHADEAVAKPVDADQLVERAGALIGFPE	soluble
MGSDKIHHHHHHMKVAKFGGSSLASASQIKKVFDIVQADKQRKFIVVSAPGKRSGADTKVTDALIAYYKAYKSADEKGIHYYQNWIIERFREIYDELGLKSPVINQIAENINHLAQLDLDNVFTYDTFLAAGENNNAKLVADFFNHSGLPSRYVHPSDAGIMVSSDPGNARLLGGAYEHIKYLNELEETLIIPGFFGITKEGEVCTFSRGGSDITGSIIAAGVRAELYENFTDVNGIFAAHPGIVKNPAYISELTYREMRELAYSGFSVLHDEALVPAYRAHVPLVIKNTNNPDHPGTKIVVQRETKGSPVVGIASSSAFSSLYVSKYLMNREVGFGRKVLSVLENLGVRFEHMPTGIDDMSIIIRSRYLTQPISKALISNLTESLHPDEVYIDRDFSIITIVGEDMKEHVGVTARATAALSKQGISIAMLSQGSSEVSVMFIVKEKYEKEALKAIYSAFFD	not soluble
MAHHHHHHMGTLEAQTQGPGSMSDIPSDLHYTAEHEWIRRSGDDTVRVGITDYAQSALGDVVFVQLPVIGTAVTAGETFGEVESTKSVSDLYAPISGKVSEVNSDLDGTPQLVNSDPYGAGWLLDIQVDSSDVAALESALTTLLDAEAYRGTLTE	soluble
MSLLLFQSLLRRGLLVAINFSPKVGEILECNFGNYPVSQNGPFSTTYYDGRIPPEMIKNRLVVVLNGKINGNAFIVVPLSTTRDHDKLKRGMHVEIASNVINDLQFFDQQIRWAKTDLVQQVSRNRLNRARTYRGYLNQCLPHELVADIQRAVIKSINAISLINEGHHHHHH	not soluble
MGSDKIHHHHHHMKTQSQDRWFIWQLSEELEAKIRYREYGPPDSPFTPLLFIHGYGGMIEHWNDNIPSFDDRYRIYAMDLIGFGQSGKPNVRYSLALFAAQIKAFMHLKKLEKVTLVGHSMGAASSIIYAHHNPDSVRALVLANPSGLYGDSMDGVAKIFFGLVGSPLIGEMLFAAFANPVGVSQSLTPTYYNQKKVDLNLINQFSRPLQDRGAIFSYLSPSKRPHDFMLDGLKPCNYKGDAWLLWGAEDTALPPHKIIPEFQELLPQAGAYIIPKAGHCIHHDAHETFNNRLAQLLQRLE	not soluble
MTVLQLPNIPRITLLGTTALLFEAPGELDLAPQQRIWALADLSKNWPQVREAVPGMNNLMLTFETPPRDLSGLKTRLMEAWEHCQPLPLQGRIIELPVVYGGDGGPHMADVIAHTGLDIETIANLHCEPLYPVYALGSHPGYCYLGGMDLRLATPRRKVPVLDIGAGSVSIGGVQTGISASAGPSGWNTIGRTEMVFFDADQHPPALLQPGDQLRLRIERIIRLEHHHHHH	not soluble
MGSDKIHHHHHHMSNSQILGERARILADQLLAVPTTVYQQRSLQAALHLFLDTGTKTALHRAPLVSKSAVSRLLNNYDWDTAACWALLQRSQWEALLLAARRKRRACLRLSVDLTSIEKTGKQLPFVRVYNEVHGIHLVVLFAEYRGLKFPVGYRVYRGKGTATPVSLALELLGEVPDAIRKRFRIRVLADSGFEAAVFLDGVRTLGFEFVVGVRATRRTTHPGQVTVADCEHGAWLELQNWPHDTLTLARVERGERTFFSVASELMTGDEVAAEGGKRWNIESFFKEGKHQFSLQQFALRTARGLDRWVLLVFLAFTLTMLHRSPDLSLEEAAGLALTLALPFLRLNVIFARLATDEEFLRQHGYSLKIARCNS	not soluble
MSLKILVVGPSWVGDMMMSQSLYRTLRARYPQAIIDVMAPAWCRPLLSRMPEVNEAIPMPLGHGALAIGERRKLGHSVRERRYDRAYVLPNSFKSALVPFFANIPLRTGWRGEMRYGLLNDARVLDKDAWPLMVERYVALAYDNGVMRCAKDLPQPLVWPQLQVNEGEKSQACSAFNLSNDRPIIGFCPGAEFGPAKRWPHYHYAALAKKLIDDGYQIALFGSAKDNEAGKEIIAAISSEQQAWCRNLAGETQLEQAVILIAACKAVVTNDSGLMHVAAALDRPLVALYGPSSPDFTPPLSHKARVIRLITGYHKVRKGDAAEGYHQSLIDITPERVLQELNELLAEKTEHEEAEGGSHHHHHH	soluble
MGSDKIHHHHHHMLQFQPPGFGHKLIHTSLGAMVYYTQTNTPWAFADTEDLPPLLFLHNFGGGASAYEWSKVYPAFASNYHILAPDLIGWGESAHPVRDYKIRDYLSTIAEFIIETCRQPVTVVASSLTAAFAIRLAIVQPNLFKALFLVSPSGFDDFGQGAGRRLPLSVINTPLLDNFIYMLGAENEIAVRNFLQSFLFAKSERVSQEIVDAYLTSAQQPNAKFSALAFLRGDLYFDLSLYIQQLTIPTVMFWGEKAQFTNIKLGQRLANLNQRAIQDFYAIADAGILPHLEIPEVVIGLLQRYLR	not soluble
MAHHHHHHMLNLSSLLISKKNVKDDGNNSSENEVGGNNDVSSLNNDCVKIKLINMQEYKTKKLLDERKNVNVWSANNKKDNDKKEKKKEKKNEQPKKKESVVTKPKAVGENDTKKIENKDIENKNVTPKKLFVPSAIKQQQQKEALKNKQTPKKEEELFPDLIQSKKSNKTEKEKKKTQPAKKSKKEKADKKVQESTKEQENEFPQIEEIEKIHFNIFDFIDMEKQTYEHIVRNSEKVLQKYKNRSKFVDSMIMCN	not soluble
MIEPVLENVQPNSAASKAGLQAGDRIVKVDGQPLTQWVTFVMLVRDNPGKSLALEIERQGSPLSLTLIPESKPGNGKAIGFVGIEPKGKASPV	soluble
MTLNITSKQMDITPAIREHLEERLAKLGKWQTQLISPHFVLNKVPNGFSVEASIGTPLGNLLASATSDDMYKAINEVEEKLERQLNKLQHKSESRRADERLKDSFEN	soluble
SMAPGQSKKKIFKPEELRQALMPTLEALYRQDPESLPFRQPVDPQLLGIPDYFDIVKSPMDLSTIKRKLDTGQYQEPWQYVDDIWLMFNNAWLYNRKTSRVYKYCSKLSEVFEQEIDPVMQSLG	soluble
MNKNLHPIFAKRIQQVLDENGWSMADLSRRVMLSHTSVRKWASGTSVASGERLKRLSAVTGRPEYWFFMEPGDESEGERAEPKPRVLDEKEETLLSLFNQLPEAEKLRVILHTKAVLQEMDLLKNNVFDLINDLKK	not soluble
MNRRVPKSKSWKTRLSAGGANRTSLHGQMSRYPEVAEDYLIMQPSIRRSSGSDLMPVARFNNFKRWNSCLQHVESQPEDIREWDPPPPSSHCPQIYHKSQYSRRERSPDILTDDRGRPIPRRGMFLNAKYSEAARPPIDEDRIRHTEDVIKRMLYKGRRKESMGYYPNRNHLMRDQIRQTVYNLGVPNGYRAPEQDHFEDDYDDQPGPSNRHYGVSSHPEYYREDRWRLAEGDYEVDKGDGSRQLNKEKYLKKRRKQMIERESVDSEISEEEEEEEIYNKQTKRRRSQKTPIQHNKNRTESRLHQKEKSSSDEEVHEKSTSSRHSNVSRSSKSPYLNDDRAPSRGSKCTSSHHSTPKLLTPSPQYLKDSDDDDNWKNSIPFMSSSDGAGAGMRVRIGSAIASLPLRDDSKNSYSEVALMLLERSVKNLKNPQKMLIKEKPQTRIMNMSTSWAQQDPKKRNENDDDEIVPETEKAETSLMHDLSRIQHPQNATTVQMDQTLFTNSKLMKIDVAIAKNWLDTKMKKTLIPPPLFRSSPISEDVFKSSDRITMPSTIKGPESTAVGNRISSDGEEEDFATKQFDIDDYIARGASKIDFSKTITAPNTSFQEPSTSLFKDPTFFRQESKGNEMNIESFSERTPSKNRTSQQMEFQISTSSISKTKTNASLDSIHRRKSKPQPMLEFDAETQKMFDDAFQSDKKSTKEKYPF	not soluble
MVESGKAQMESFRIDNNGIQKKSRTKFIAGVGKSLRSAKNLTSKTVQTQFVAYPELAQLLPIFPAERLKKLILNGLDGQEYKQLIDLDQWKQARIFHGYAENLIIPIEKFFHFERFDVHLARFTEADALRLRAMIDRSAHFGFAGICCNYMNNSALKRIFNVEHENFYQTPDERSFDVQCRPGEISITKFGYTVE	not soluble
MNQEYLDFELPIAELEAKIEALRAASDDKVDLTDEIKRLQKKSNELTKKTFANLDAWQVSRMARHPNRPYTLDYIEHIFTEFEELAGDRAFADDKAIVGGLARLDGRPVMVIGHQKGRSVKEKVQRNFGMPAPEGYRKALRLMEMAERFKLPIITFIDTPGAYPGIGAEERGQAEAIARNLREMAQLTVPVICTVIGEGGSGGALAIGVGDKVNMLQYSTYSVISPEGCASILWKSAEKASTAAEVMGLTASRLKELNLIDSIVQEPLGGAHRSYLEIAENLKLRLKEDLAELDELSKEELLNRRYERLMSYGYC	not soluble
